Key:
[1] = molecular target: T1, SDR5C1 (MRPP2, HSD17B10) (Homo sapiens, UniProt Q99714 1-261); experiment: BLI; 4.5 mM Mg2+; up to 1 uM SDR5C1; BLI (BLItz, streptavidin sensors): 50 mM Tris-Cl pH 8, 20 mM NaCl, 2 mM DTT, 20 ug/ml BSA, 0.5 U/ul RNase inhibitor, 0.05% Tween-20, with (Lys) or without 4.5 mM MgCl2, 21 C; settings: protein: recombinant; tags: N-terminal His6; chain copies: 4; label: 3' biotin (pCp-biotin); tRNA cloverleaf
T1 sequence: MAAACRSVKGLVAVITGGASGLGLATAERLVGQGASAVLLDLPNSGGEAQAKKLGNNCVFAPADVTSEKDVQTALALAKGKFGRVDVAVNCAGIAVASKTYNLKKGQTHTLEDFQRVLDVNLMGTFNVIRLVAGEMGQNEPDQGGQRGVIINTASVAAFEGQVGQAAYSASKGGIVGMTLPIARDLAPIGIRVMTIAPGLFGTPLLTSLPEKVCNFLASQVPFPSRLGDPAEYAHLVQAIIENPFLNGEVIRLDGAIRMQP

[2] = molecular target: T2, TRMT10C (MRPP1);SDR5C1 (MRPP2, HSD17B10) (Homo sapiens;Homo sapiens, UniProt Q7L0Y3;Q99714 40-403;1-261, |); experiment: BLI; 4.5 mM Mg2+; BLI (BLItz, streptavidin sensors): 50 mM Tris-Cl pH 8, 20 mM NaCl, 2 mM DTT, 20 ug/ml BSA, 0.5 U/ul RNase inhibitor, 0.05% Tween-20, with (Lys) or without 4.5 mM MgCl2, 21 C; settings: protein: recombinant;recombinant; tags: C-terminal myc-His6;N-terminal His6; copies: 1;4; label: 3' biotin (pCp-biotin); tRNA cloverleaf
T2 sequence 1: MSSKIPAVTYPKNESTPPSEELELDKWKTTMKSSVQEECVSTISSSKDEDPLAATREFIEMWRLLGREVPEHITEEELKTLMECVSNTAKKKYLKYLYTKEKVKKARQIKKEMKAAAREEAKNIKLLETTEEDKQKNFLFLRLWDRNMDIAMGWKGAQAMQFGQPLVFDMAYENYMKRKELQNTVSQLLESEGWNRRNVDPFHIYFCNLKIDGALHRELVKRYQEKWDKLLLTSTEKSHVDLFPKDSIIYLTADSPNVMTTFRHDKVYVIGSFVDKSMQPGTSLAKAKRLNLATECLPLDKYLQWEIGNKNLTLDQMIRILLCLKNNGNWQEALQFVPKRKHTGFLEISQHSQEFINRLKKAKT
T2 sequence 2: T1 sequence

[3] = molecular target: T3, TRMT10C (MRPP1) (Homo sapiens, UniProt Q7L0Y3 40-403); experiment: as above; settings: protein: recombinant; tags: C-terminal myc-His6; chain copies: 2; label: 3' biotin (pCp-biotin); tRNA cloverleaf
T3 sequence: T2 sequence 1

[4] = molecular target: T4, PRORP (MRPP3) (Homo sapiens, UniProt O15091 46-583); experiment: as above; settings: protein: recombinant; tags: C-terminal His6; label: 3' biotin (pCp-biotin); tRNA cloverleaf
T4 sequence: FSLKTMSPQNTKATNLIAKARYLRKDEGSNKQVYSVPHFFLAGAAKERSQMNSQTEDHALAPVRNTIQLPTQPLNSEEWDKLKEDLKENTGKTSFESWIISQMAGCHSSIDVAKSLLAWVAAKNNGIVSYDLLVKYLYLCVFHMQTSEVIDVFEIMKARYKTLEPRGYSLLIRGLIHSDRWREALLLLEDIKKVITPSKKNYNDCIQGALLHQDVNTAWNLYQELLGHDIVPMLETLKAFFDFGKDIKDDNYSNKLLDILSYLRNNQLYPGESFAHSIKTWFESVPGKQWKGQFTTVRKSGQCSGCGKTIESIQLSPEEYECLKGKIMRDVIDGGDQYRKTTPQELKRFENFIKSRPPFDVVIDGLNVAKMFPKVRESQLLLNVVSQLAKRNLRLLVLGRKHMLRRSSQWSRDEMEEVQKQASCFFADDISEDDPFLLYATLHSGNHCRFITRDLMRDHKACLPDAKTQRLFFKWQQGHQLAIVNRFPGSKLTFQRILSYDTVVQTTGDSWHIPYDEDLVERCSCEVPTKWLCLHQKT

[5] = molecular target: T1, SDR5C1 (MRPP2, HSD17B10); experiment: BLI; no Mg2+; up to 1 uM SDR5C1; BLI (BLItz, streptavidin sensors): 50 mM Tris-Cl pH 8, 20 mM NaCl, 2 mM DTT, 20 ug/ml BSA, 0.5 U/ul RNase inhibitor, 0.05% Tween-20, with (Lys) or without 4.5 mM MgCl2, 21 C; settings: protein: recombinant; tags: N-terminal His6; chain copies: 4; label: 3' biotin (pCp-biotin); tRNA cloverleaf
[6] = molecular target: T2, TRMT10C (MRPP1);SDR5C1 (MRPP2, HSD17B10); experiment: BLI; no Mg2+; BLI (BLItz, streptavidin sensors): 50 mM Tris-Cl pH 8, 20 mM NaCl, 2 mM DTT, 20 ug/ml BSA, 0.5 U/ul RNase inhibitor, 0.05% Tween-20, with (Lys) or without 4.5 mM MgCl2, 21 C; settings: protein: recombinant;recombinant; tags: C-terminal myc-His6;N-terminal His6; copies: 1;4; label: 3' biotin (pCp-biotin); tRNA cloverleaf
[7] = molecular target: T3, TRMT10C (MRPP1); experiment: as above; settings: protein: recombinant; tags: C-terminal myc-His6; chain copies: 2; label: 3' biotin (pCp-biotin); tRNA cloverleaf
[8] = molecular target: T4, PRORP (MRPP3); experiment: as above; settings: protein: recombinant; tags: C-terminal His6; label: 3' biotin (pCp-biotin); tRNA cloverleaf

B1: pre-tRNALys, 3'-biotinylated (structured_RNA)
RNA: ACCCCCUCUAGAGCCCACUGUAAAGCUAACUUAGCAUUAACCUUUUAAGUUAAAGAUUAAGAGAACCAACACCUCUUUACAGUGAAAUGCCCCAAC
modifications: splint ligation of synthetic RNA (15 nt 5' flank + tRNA nt 1-8) to transcript of 8303-8375; 3' pCp-biotin adds a C
B1 was tested, and the binding result [1] was “no binding”, the Kd [2] was 4 nM and the Kd [3] was 30 nM. The Kd [4] was 26 nM.

B2: pre-tRNAVal, 3'-biotinylated (structured_RNA)
RNA: UGCACUUGGACGAACCAGAGUGUAGCUUAACACAAAGCACCCAACUUACACUUAGGAGAUUUCAACUUAACUUGACCGCUCUGAGCUAAACCUAGCCCCAAACCCACUCCACCUUA
modifications: splint ligation of synthetic RNA (15 nt 5' flank + tRNA nt 1-8) to transcript of 1610-1702; 3' pCp-biotin adds a C
For B2, the binding result [5] was “no binding”, the Kd [6] was 13 nM and the Kd [7] was 20 nM. The Kd [8] was 18 nM.
